Molecular target: β-glucosidase with N-terminal K-coil and N-terminal His-tag (KG)

retention rate of relative enzyme activity of the KG-HE complex recovered in a magnetic field, after usage cycles 1 to 3 (93.8%, 82.5%, 56.3%); pH 4.5, 45 °C, 20 min: 93.8%
Substance: human H chain ferritin with C-terminal E-coil, without the sequence of a His-tag (HE)
